Here are results for one molecule from US20200078439A1.

The experiment has as its target HLA-DR molecules of the vaccinated patients. Description: cell-based or functional assay.

B1: BIR-002 (Survivin 97-111: …) (peptide)
peptide: TLGEFLKLDRERAKN
As for B1, the immuno-response in vaccinated patients in vivo (IFN-g ELISPOT, +/- ICS) (out of 19 patients) worked out at 16.
